From US20030068630A1 (MYRIAD GENETICS, published 2003) come the findings set out here.

The target in this assay is T1, Mineralocorticoid receptor (MCR) amino acids 603-985, Gal4 DNA-binding-domain bait fusion (Saccharomyces cerevisiae, UniProt P04386 1-147; P08235 603-984).
T1 construct: range 1-147;range 603-985; Bait made as a C-terminal fusion to Gal4 DBD in vector pGBTQ; also called MCR AA 603-985
The experiment in a line: yeast two-hybrid (Gal4, beta-galactosidase read-out) with 4 uM aldosterone; bait MCR AA 603-985. The procedure: DNA was prepared from each clone, transformed by electroporation into E. coli strain KC8 (Clontech KC8 electrocompetent cells, cat. # C2023-1), and the cells were selected on ampicillin-containing plates in the absence of either tryptophane (selection for the bait plasmid) or leucine (selection for the brain library plasmid). DNA for both plasmids was prepared and sequenced by di-deoxynucleotide chain termination method. The identity of the bait cDNA insert was confirmed and the cDNA insert from the brain library plasmid was identified using BLAST program against public nucleotides and protein databases. Plasmids from the brain library (preys) were then individually transformed into yeast cells together with a plasmid driving the synthesis of lamin fused to the Gal4 DNA binding domain. Clones that gave a positive signal after β-galactosidase assay were considered false-positives and discarded. Plasmids for the remaining clones were transformed into yeast cells together with plasmid for the original bait. Clones that gave a positive signal after ,galactosidase assay were considered true positives.
A yeast two-hybrid system as described in Example 1 was performed in the presence of aldosterone. […]

B1: PN19395 amino acids 120-397, Gal4 activation-domain prey fusion (other, Saccharomyces cerevisiae, not shown: small tags and cut ends)
chain: ANFNQSGNIADSSLSFTFTNSSNGPNLITTQTNSQALSQPIASSNVHDNFMNNEITASKIDDGNNSKPLSPGWTDQTAYNAFGITTGMFNTTTMDDVYNYLFDDEDTPPNPKKELMPGAGLLPIPTPNPLTTLGVSLSSLGAIPAAALDPNIATLGEIPQPPLMGNVDPSKIDEIRRTVYVGNLNSQTTTADQLLEFFKQVGEVKFVRMAGDETQPTRFAFVEFADQNSVPRALAFNGVMFGDRPLKINHSNNAIVKPPEMTPQAAAKELEEVMKRVREAQSFISAAIEPESGKSNERKGGRSRSHTRSKSRSSSKSHSRRKRSQSKHRSRSHNRSRSRQKDRRRSKSPHKKRSKSRERRKSRSRSHSRDKRKDTREKIKEKERVKEKDREK
notes: range 768-881; Novel 624 amino acid protein; Clone from a human brain cDNA library in pACT2
Consider B1, for which the binding result is on record as “binds”.
